Assay results: patent US20230242623A1 (GEORGIA TECH RESEARCH, published 2023)

Target: T1, SARS-CoV-2 spike ectodomain protein (SARS-CoV-2, UniProt P0DTC2 14-1213)
T1 construct: extracellular domain
Assay: BLI, immobilized spike ectodomain; avidity reported as 1/Kads

B1: 3A7 (antibody, V domains shown)
VH: QVTLKESGPGILQPSQTLSLTCSFSGFSLSTSGMGVSWIRQPSGKGLEWLAHIYWDDDKRYNPSLKSRLTISKDTSSSQVFLKITSVDTVDTATYYCARRGPLITTDGTFDVWGAGTTVTVSS
VL: DIVMTQSRKFMSTSVGDRVSITCKASQDVGTSVAWYQQKPGQSPKLLIYWASTRHTGVPDRFTGSGSGTDFTLTINSVQSEDLADYFCQQYSSYPYTFGGGTKLEMK
notes: also called 3A7 clone
  Kd: ~10 pM
